Here are results for three molecules from publication PMC9767379, “Homologous chromosomes are stably conjoined for Drosophila male meiosis I by SUM, a multimerized protein assembly with modules for DNA-binding and for separase-mediated dissociation co-opted from cohesin” (PLOS Genetics, 2022).

The target in series [1] is T1, Strep-II-UNO_C (D. melanogaster, UniProt Q7JQU5 281-417).
T1 construct: source: Hi5 insect cells, baculovirus, co-expressed with MBP-SNM; purified (Strep-Tactin, SEC); not shown: twin Strep-II, N-terminal, kept
T1 sequence (looked up): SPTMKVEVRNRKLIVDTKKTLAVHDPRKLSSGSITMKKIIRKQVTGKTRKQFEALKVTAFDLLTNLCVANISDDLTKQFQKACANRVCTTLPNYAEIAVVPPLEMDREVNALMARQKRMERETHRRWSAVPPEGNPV
The series can be described thus: SEC-MALS + other: mass photometry; purified SU_C complex; SEC-MALS in 50 mM HEPES pH 7.5, 1 mM TCEP, 300 mM NaCl, 5–10 μM; mass photometry in 30 mM HEPES pH 7.8, 150 mM NaCl, 3 μM diluted 1:100. Conditions: both partners purified. In general terms: Size exclusion chromatography separates by hydrodynamic size, large species first.

Series [2] concerns the molecule itself. Briefly: SEC-MALS; purified protein alone, 50 μL at 5–10 μM, 50 mM HEPES pH 7.5, 1 mM TCEP, 300 mM NaCl.

Values joined by “and” are separate entries in the source; they are usually repeats but may differ in a detail not shown here. Equal values may be shown once.

B1: MBP-SNM (natural protein, D. melanogaster, UniProt Q9W0F4 1-973, looked up)
chain: MSDISFDDAVLNDSQASNQMDFEIREECSIAPNDEPVCVDGTVGDATNKSLLQMILSRKRLSPTNKRNSHIESVAKYWGEFYLDSPTAALVALLQFVVEVSGSHYQIPDDTSMPFSYSDILSNSSSHFSNTHIYPLIRKPADVFVNQVGSFLNALLLVANKFRSDSYQLFLVQLTNFVMACSESNIRTFRHTATMIGLKIMTILSDLKSLDDEIAMTVWMQMFNSMFVARSRDIVTDIRLLCISELGQWFARYPHCHLQPTSLRIFYEALNDGSGDVIQCSLDNISVLCRKDVLFSEIVALTSEFREILVELCLGKEDAIAEKSVQFLTHFHVLSAEILTDDVCRVLEQLIMAANRGLAQAAADLFILRRNGLDGETFCQRVKHLLQLFIECGHEQADYLVDSLIDNCELVLDWKSMIAVLLENPKSRELSDIHCSSLIAILLAGVKQATAGEIPPGRYTKDLKREPRQGAQERATKCLAPVLPELLRTYANRLQDIERLLELPKYFCFDYYHEQNRMGQLNELVEHFELIIFDQTSSTTVLQITVKTLEFLNRMIPIPLTKQLLNSAVTNYKMAWHRTQDTSPSRSTHNESNRLLATLRLLTVLSGHFNLSKWDLTEPLLFSLKMLLRQRRLPNGDDLPPEAFSLYLKACFCCLCWDMENLEGTALNNVDMDEYCDVLHHNLEDYLYVTFSLVGKSNTEPLAYPCFSYTCDLFVLHGNLCGSSNPSIRSVAHVPSGNELDILEGFLMEHFLELSPSDLMLETNSDQLQRIRSILTSYLKVVCLGVVPTMRASKFYEYYVKYHAPFGDVMRCSMELALQRNPIHFAMTMLHTCLLLYAKVFPDDTRHAAGQRALRPAEFSELMELANRLAKILISNPMEHRECVIALHRSGILFVFELAQKQPTEATKKLPFLRVLKVFVPLLLVQDKTRILNFFEPYEQLIIPTCNRNDIAHLKEYRNALRPRKTKSYPQAT
notes: SNM (stromalin in meiosis; SA-2), D. melanogaster; source: purified (Strep-Tactin, SEC); not shown: MBP, N-terminal, kept
Usually stoichiometry N stands for the number of molecules, sites or subunits per partner or assembly. For the molecule B1, in series [1], the “stoichiometry N” value worked out at 1.

B2: MBP-UNO_N (domain or fragment, D. melanogaster, UniProt Q7JQU5 1-73, looked up)
chain: MPALTHQILTMQRAPPLNLSFKIQLLSGQNVILVECSGYESELFLPQIVGERITMQNVIQDRRCCAESMLLRD
notes: UNO, D. melanogaster, N-terminal domain aa 1-73; found as a tetramer (SEC peak 1) and as a dimer (SEC peak 2); source: E. coli BL21, purified (amylose/MBP Trap, ion exchange, SEC); not shown: His6, N-terminal, kept; MBP, N-terminal, kept
With B2, in series [2], the “stoichiometry N” value was 4 and 2.

B3: Mod(mdg4)_CP (purified) (domain or fragment)
chain: MADDEQFSLCWNNFNTNLSAGFHESLCRGDLVDVSLAAEGQIVKAHRLVLSVCSPFFRKMFTQMPSNTHAIVFLNNVSHSALKDLIQFMYCGEVNVKQDALPAFISTAESLQIKGLTDND
As to B3, the “stoichiometry N” value in series [2] is 6.
